The record followed here is the DeepSol protein solubility set.

The data set is described as follows: soluble on expression in E. coli; label from the status in PepcDB or PDB records.
Turning to “MEEDNQSPSPSESSIKTDYDAKIRVLYSTKNNKSEEESVFAHRLVLSTFSPLFQQLLQDATSSSTSTTSSTSSDDVISISLDLTAFPNALAAFKVILEALYTGDIKMKSVAANEVLAVSRHCQISSLEPKIMSAVAPLPLNLANILNCSQSVPLNSNPFLQYTSPPIQNYLSSMISLWSNPFFSALFGNTTGTPSLPFSPQSDTENSRTQSEGSSPRANSTSTPPTTDLEKIVPNDDKEGWCRNKKYIEKVDGGFMCTVCRKIYGRYNSVSYHVTIYHRNPPIKCEENGCNFSTREARYIHFHKYYRHHIPLPENIDLGSRKCPFCRHVSKSPAMLEKHIARHETDGTSGGTPGALKRAQSKKKIVPTMTTDVIDPNVSSIFAPTNPAGNIPIQCSLCPFSTHSTDLLFIHLAMQHAQELAQCSGLLADNSSETSTSSSSDGEPMITDIDLDVKPLIDQSLMLHLNTPLSN”, the “soluble on expression in E. coli” value is on record as “not soluble”. With “MEKLLSELAELGARQKFNGEIDFGAEIASDSLLEVMKIVGSEELSQQVLEGFLEQAPTIHQVLLGMTFASYLQSTTSGEASPGAQELSEPLKKARRSIRLLLNLTQRSPDFASRISSESVELLETLLATGSFDVECLIILLKTSQATWLEFQKSPRYSALLQRVLSKYSPDFSENSTILAYFSVLFEMDYGFLSMCYAEMDAPTFCEILDVLRVILTRKTLKIHSNNLLFVLNLLELVVVDYEAFWRARERKEPQSVEQRRVATVEILNLEVEIVGEMCSNTEMTSYLNEKATAMNSVVDVLDAVSIFRNKISIFLDFFQILHAEALFADFRAEQPSDWPKIESEHPRFEVLKRKIEEERRYEETQRRYPDRPRQPLPPKIQRVESSESLSLLANTIFSKYRSIDDVIGVPRVGELKLNCLKAIANLANLSDSNKLATLQNGRQGLISVLQCTTRRPEYFLESFTMRNQSIFCVRQLTDGCQENKEVVFNLQQPNQPIIDRKRLLEELGVHVDN” the entry was “not soluble”.

On to “MLQRTLAKSISVTGVGLHSGERVALTLHPAPENSGISFRRTDLDGEMGEQIKLTPYLINDTRLSSTIVTDKGVRVGTIEHIMSALSAYGIDNALIELNAPEIPIMDGSSLPFIYLLQDAGVVDQKAQKRFLKILKPVEIKEAGKWVRFTPYDGFKVTLTIEFDHPVFNRSSPTFEIDFAGKSYIDEIARARTFGFMHEVEMMRAHNLGLGGNLNNAIVIDDTDVLNPEGLRYPDEFVRHKILDAIGDLYIVGHPIIGAFEGYKSGHAINNALLRAVLADETAYDRVEFADSDDLPDAFHELNIRTCGLEHHHHHH”, for which the “soluble on expression in E. coli” value is “not soluble”. The entry for “MGSDKIHHHHHHMQNLDALLIFARVAEMTSFTRAAESLGIQKGRVSMVIRKLERDVGVALLHRTTRSVQLTEDGRAFYSRARDLLAEVQELQSMFSGNGTRLRGRLRVDMPTELARSVVVPALPQLMAAHPELELELSSTDRRVDLVQEGFDCVIRLGPITDDTLIARPLGKLRMTNAASPGYLARYGIPHTLDDLRTQGHRMVHYTLTLGARHPGWEYPNGDGYASLPLPSAMQVNSVQTYHAAGLAGIGLIQAGYSALAHHIESGALVEVLPDLRPEPLAASLVVAHRRNLSPRVRAFMDWIEGVLAPYLD” is “not soluble”; for “MVEVKNLVAITGPKMPYELARLLKISHARATRLAAAANAQNPTPSRARTSDAQAQQPAAASPKPPAEPVAAEPKKKRAKKATPVEAGLPPLTGKITGGHACAFDVVGESYYQPALRRLRNGRHMATDNDFVADIVAEPDNPHDPNACAVYIEGFKVGYLPRDAAADFQQQVADMGVTGTWRLQTKAKLSGGWGDRPMVGVLLSLPKSLEHHHHHH” it is “soluble”; for “MAMEKPVLWYIADPMCSWCWGFAPVIENIRQEYSAFLTVKIMPGGLRPGTNTPLLPEKRAQILHHWHSVHITTGQPFTFENALPEGFIYDTEPACRGVVSVSLIEPEKVFPFFAAIQRAFYVGQEDVAQLAILKKLAVDLGIPESRFTPVFQSDEAKQRTLAGFQRVAQWGISGFPALVVESGTDRYLITTGYRPIEALRQLLDTWLQQHGV” it is “soluble”.

For “MGSDKIHHHHHHMINRYLGDPPFESPERRNRLPERHKVKAGFSPTIDCAVLIAAAEKGFAADEGIELELFREQSARAVLAALGGDDIHIGHLPAPVPVGSAVGLDDLPADIVGVFTLSLGGSATAVSHGFYDELYREGMKLPDPAAFGRAMARVCAARRAAGKNPPVFAVEDIVSTPFYTLRYLLGSCGVLLGRDMEIIEALPKAMPALLESGKVDALCTAEPAGSAVVLGGAGRIVTTGALIWHNAPEKILAVKKGWAEENATLLEGLLRALYRAGEWCANDANIEELAGILAAPQYIDENGEFLLPALTGYISTSQRDMQRFQEFFVTSAKAANFPWQSQALWFFSQMLRWGEVPAERRLEPTMAEAARNAYRPDIFRKAMKPLFVPVPGANLKLEGTLKEPVHVGASRTGLVLGPDCFFDGRVFDPETLEMDDEI”, the “soluble on expression in E. coli” value is reported as “not soluble”.

For the sequence “MALSDVKVRSAKPEAKAYKLTDGEGMVLLVHPNGSKYWRLRYRFGGKEKMLALGKYPEVSLADARARRDEARKLLANGVDPSENKKAVKVEQEQEAITFEVVARDWHASNQKWSASHSARVLKSLEDNLFTAIGKRNIAELKTRDLLVPIKAVESSGRLEVAARLQQRTTAIMRFAVQSGLIDYNPAQEIAGAVATAKRQHRAALELNRIPELLHRIDHYSGRPLTRLAVELTLLVFIRSSELRFARWSEIDFETAMWTIPGEREQLEGVKHSQRGSKMRTPHLVPLSRQALSILEKIKSMSGNRELIFVGDHDPRKPMSENTVNKALRVMGYDTKVEVCGHGFRTMACSSLIESGLWSRDAVERQMSHQERSSVRAAYIHKAEHLGERRLMFEVVNKNWPPS”, the “soluble on expression in E. coli” value is “not soluble”. “TIVDLEDNVLVIGFGRFSQIVCQTLLIRGISVSVIDRNIENIRAAAKFGFKVYYGDGIRLDVLRAAGIEKAKCVVLGINDTQRIEHIVSQMKEAYPNLPILTRTYDRKTTVSLIKQDVDFIVRETFESAITLSRATLMKLGID”: the “soluble on expression in E. coli” value was “not soluble”.

Take “MEHDLNDMMVFLAVVETGSFTLAADRLGMPKANVSRKVSRLEKNLAVTLLERSTRSQHLTEAGRRYLAHCKRIHEELDLATASVCELFHSYTGELKIGASVASGQQVLRPALGKFMRQYPDLKVQLNLVNRRVDFIEEGFDVVIRIGQLNDSMLIAKKLGAINRKIFASPSYLAKQGNPDKVEQLTEHQLLIMNPLNISGNKDLKLPLTSTDHETFTLDCQPRLLVDDFSMLKQAIVDGLGIGVLPDYMCRQEVASGQLVNILPDWGMAKVDIYALYPKHRAKIPKVKAFIDFVSELYGEVL”: the “soluble on expression in E. coli” value is listed as “not soluble”.

Consider “MSLAAENILQRQFKAEAPCEKWVTDITEFRAGGQKLYLSPILDLFYGEIVAWETACRPTEELVKRMLNKGLESLAEGEKPLLHSDQGWHYRIKSYQSALADRGLVQSMSRKGNSLDNAVMENFFGHLKEEMYYRRDYRNVEELENAVNEYITYWNQKRIKLSLGGLSPVEYRTEYQKAGEGHHHHHH”, for which the “soluble on expression in E. coli” value is given as “not soluble”. With “MGSDKIHHHHHHMFNLEEYTEKAQKVMMSIQDIMTRYRQNQLSSEHILLAILEEGNNVGVELLKELNVDINRLKDEVEVFIGKYGVRVPEGASVSQIFITPDARHVIEKAREEARRMGDSKIGTEHLILGMVLSPDSTAFRILSRYGVTPERVYEAIRKIRSTGKTDEAENVEALARFTVDLTQLAREKKLMPVVDREKEIRRVIQILSRRTKNNPVLIGDPGVGKTAVVEGLAQRIVEGKVPLFLRNVRVLKLDMGRLVAGTRFRGDFEERLKRLLDELKRKKGEVILFIDEVHTVVGAGAAEGALDAANIMKPELTTGEIQIIGATTVEEYRKYIEKDRALERRFQPVMVEEPTVEQTIEILKGLRKVFEEHHHVKITDDALEAAAKLSARYITNRFLPDKAVDLIDEAAAYVRLESSYPSEELLKLEEEIKNLEDKINDAVVKGEYEEAAKLKVELQKLKNEYEEKRKKQEKVEPVVDENVVAKIVEQWTGIPVSRIMESEREKLLKLEEFIHQRLVNQEEAVKIVARTIRRARVGIKNPRRPIGVFLFLGPTGVGKTELARTLADVLFGSEDAMIRLDMSEYMEKHSVARLIGAPPGYVGYEEGGQLTEAVRKRPYSVILLDEIEKAHPDVFNILLQVFEDGRLTDGKGNTVDFRNTIIIMTSNIGSEKILEMSENGVRIEIEKELRNTFKPEFLNRIDAIVYFKPLTMEEVKKIVEIMVRQLQEILKEKNISIELTERAKEYLAEAGYVPSLGARPLRRIIELELESMIADKILEGEIKEGDRVLVDADEYGLKIERR” the entry was “not soluble”.
